Assay [1] concerns the target T1, biotinylated 10-mer C-terminal PBM peptide of DGKζ (human, UniProt Q13574, biotin attached to the N-terminus via a trioxatridecan-succinamic acid (ttds) linker). Nature of the assay: nHU-MS, printed as pKapp 5.01.
The target in assay [2] is T1, biotinylated 10-mer C-terminal PBM …. In words: nHU-MS, printed as pKapp 4.98.
Assay [3] shares this target. In words: nHU-MS, printed as pKapp 5.71.
Assay [4] shares this target. Nature of the assay: nHU-MS, printed as pKapp 4.96.

Consider four molecules from article doi:10.1101/2023.06.15.545061 (2023).

T1 sequence (Q13574 whole entry, looked up, tested part not stated): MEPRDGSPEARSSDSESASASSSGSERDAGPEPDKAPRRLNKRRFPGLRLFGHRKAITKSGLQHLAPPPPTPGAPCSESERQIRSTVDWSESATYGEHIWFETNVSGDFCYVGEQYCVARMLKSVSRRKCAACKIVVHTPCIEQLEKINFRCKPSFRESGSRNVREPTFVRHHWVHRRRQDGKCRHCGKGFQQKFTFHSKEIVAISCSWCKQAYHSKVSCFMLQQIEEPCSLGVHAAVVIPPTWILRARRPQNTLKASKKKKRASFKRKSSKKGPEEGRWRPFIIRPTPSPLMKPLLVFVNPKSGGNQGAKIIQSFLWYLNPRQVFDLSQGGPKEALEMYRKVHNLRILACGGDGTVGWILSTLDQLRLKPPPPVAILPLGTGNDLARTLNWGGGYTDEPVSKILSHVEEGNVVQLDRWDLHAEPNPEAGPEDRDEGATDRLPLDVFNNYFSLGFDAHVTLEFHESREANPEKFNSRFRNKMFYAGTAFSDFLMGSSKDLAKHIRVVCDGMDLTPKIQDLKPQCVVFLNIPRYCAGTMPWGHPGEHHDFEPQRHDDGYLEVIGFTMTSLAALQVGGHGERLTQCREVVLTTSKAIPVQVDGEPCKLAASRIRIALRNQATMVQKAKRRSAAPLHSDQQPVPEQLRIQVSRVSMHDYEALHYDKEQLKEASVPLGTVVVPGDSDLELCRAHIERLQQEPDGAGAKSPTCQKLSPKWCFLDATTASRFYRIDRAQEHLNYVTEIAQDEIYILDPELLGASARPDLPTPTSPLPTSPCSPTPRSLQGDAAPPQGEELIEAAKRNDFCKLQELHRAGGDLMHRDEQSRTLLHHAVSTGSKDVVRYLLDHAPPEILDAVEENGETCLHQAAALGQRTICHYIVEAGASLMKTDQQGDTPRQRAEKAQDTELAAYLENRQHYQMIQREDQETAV

B1: LIN7C (natural protein)
chain: MAALGEPVRLERDICRAIELLEKLQRSGEVPPQKLQALQRVLQSEFCNAVREVYEHVYETVDISSSPEVRANATAKATVAAFAASEGHSHPRVVELPKTEEGLGFNIMGGKEQNSPIYISRIIPGGIADRHGGLKRGDQLLSVNGVSVEGEHHEKAVELLKAAQGKVKLVVRYTPKVLEEMESRFEKMRSAKRRQQT
The Kd is the free concentration of one partner at which half of the binding sites on the other are occupied at equilibrium, for simple one-to-one binding. A low value points to a tighter complex. B1: binding in assay [1] was put at a Kd of 9.77 µM.

B2: CASK (natural protein)
chain: MADDDVLFEDVYELCEVIGKGPFSVVRRCINRETGQQFAVKIVDVAKFTSSPGLSTEDLKREASICHMLKHPHIVELLETYSSDGMLYMVFEFMDGADLCFEIVKRADAGFVYSEAVASHYMRQILEALRYCHDNNIIHRDVKPHCVLLASKENSAPVKLGGFGVAIQLGESGLVAGGRVGTPHFMAPEVVKREPYGKPVDVWGCGVILFILLSGCLPFYGTKERLFEGIIKGKYKMNPRQWSHISESAKDLVRRMLMLDPAERITVYEALNHPWLKERDRYAYKIHLPETVEQLRKFNARRKLKGAVLAAVSSHKFNSFYGDPPEELPDFSEDPTSSGLLAAERAVSQVLDSLEEIHALTDCSEKDLDFLHSVFQDQHLHTLLDLYDKINTKSSPQIRNPPSDAVQRAKEVLEEISCYPENNDAKELKRILTQPHFMALLQTHDVVAHEVYSDEALRVTPPPTSPYLNGDSPESANGDMDMENVTRVRLVQFQKNTDEPMGITLKMNELNHCIVARIMHGGMIHRQGTLHVGDEIREINGISVANQTVEQLQKMLREMRGSITFKIVPSYRTQSSSCERDSPSTSRQSPANGHSSTNNSVSDLPSTTQPKGRQIYVRAQFEYDPAKDDLIPCKEAGIRFRVGDIIQIISKDDHNWWQGKLENSKNGTAGLIPSPELQEWRVACIAMEKTKQEQQASCTWFGKKKKQYKDKYLAKHNAVFDQLDLVTYEEVVKLPAFKRKTLVLLGAHGVGRRHIKNTLITKHPDRFAYPIPHTTRPPKKDEENGKNYYFVSHDQMMQDISNNEYLEYGSHEDAMYGTKLETIRKIHEQGLIAILDVEPQALKVLRTAEFAPFVVFIAAPTITPGLNEDESLQRLQKESDILQRTYAHYFDLTIINNEIDETIRHLEEAVELVCTAPQWVPVSWVY
In assay [2], B2 registered a Kd of 10.5 µM.

B3: MAGI3 (natural protein)
chain: MSKTLKKKKHWLSKVQECAVSWAGPPGDFGAEIRGGAERGEFPYLGRLREEPGGGTCCVVSGKAPSPGDVLLEVNGTPVSGLTNRDTLAVIRHFREPIRLKTVKPGKVINKDLRHYLSLQFQKGSIDHKLQQVIRDNLYLRTIPCTTRAPRDGEVPGVDYNFISVEQFKALEESGALLESGTYDGNFYGTPKPPAEPSPFQPDPVDQVLFDNEFDAESQRKRTTSVSKMERMDSSLPEEEEDEDKEAINGSGNAENRERHSESSDWMKTVPSYNQTNSSMDFRNYMMRDETLEPLPKNWEMAYTDTGMIYFIDHNTKTTTWLDPRLCKKAKAPEDCEDGELPYGWEKIEDPQYGTYYVDHLNQKTQFENPVEEAKRKKQLGQVEIGSSKPDMEKSHFTRDPSQLKGVLVRASLKKSTMGFGFTIIGGDRPDEFLQVKNVLKDGPAAQDGKIAPGDVIVDINGNCVLGHTHADVVQMFQLVPVNQYVNLTLCRGYPLPDDSEDPVVDIVAATPVINGQSLTKGETCMNPQDFKPGAMVLEQNGKSGHTLTGDGLNGPSDASEQRVSMASSGSSQPELVTIPLIKGPKGFGFAIADSPTGQKVKMILDSQWCQGLQKGDIIKEIYHQNVQNLTHLQVVEVLKQFPVGADVPLLILRGGPPSPTKTAKMKTDKKENAGSLEAINEPIPQPMPFPPSIIRSGSPKLDPSEVYLKSKTLYEDKPPNTKDLDVFLRKQESGFGFRVLGGDGPDQSIYIGAIIPLGAAEKDGRLRAADELMCIDGIPVKGKSHKQVLDLMTTAARNGHVLLTVRRKIFYGEKQPEDDSSQAFISTQNGSPRLNRAEVPARPAPQEPYDVVLQRKENEGFGFVILTSKNKPPPGVIPHKIGRVIEGSPADRCGKLKVGDHISAVNGQSIVELSHDNIVQLIKDAGVTVTLTVIAEEEHHGPPSGTNSARQSPALQHRPMGQSQANHIPGDRSALEGEIGKDVSTSYRHSWSDHKHLAQPDTAVISVVGSRHNQNLGCYPVELERGPRGFGFSLRGGKEYNMGLFILRLAEDGPAIKDGRIHVGDQIVEINGEPTQGITHTRAIELIQAGGNKVLLLLRPGTGLIPDHGDWDINNPSSSNVIYDEQSPLPPSSHFASIFEESHVPVIEESLRVQICEKAEELKDIVPEKKSTLNENQPEIKHQSLLQKNVSKRDPPSSHGHSNKKNLLKVENGVTRRGRSVSPKKPASQHSEEHLDKIPSPLKNNPKRRPRDQSLSPSKGENKSCQVSTRAGSGQDQCRKSRGRSASPKKQQKIEGSKAPSNAEAKLLEGKSRRIAGYTGSNAEQIPDGKEKSDVIRKDAKQNQLEKSRTRSPEKKIKRMVEKSLPSKMTNKTTSKEVSENEKGKKVTTGETSSSNDKIGENVQLSEKRLKQEPEEKVVSNKTEDHKGKELEAADKNKETGRFKPESSSPVKKTLITPGPWKVPSGNKVTGTIGMAEKRQ
With B3, binding in assay [3] was put at a Kd of 1.95 µM.

B4: SYNJ2BP (natural protein)
chain: MNGRVDYLVTEEEINLTRGPSGLGFNIVGGTDQQYVSNDSGIYVSRIKENGAAALDGRLQEGDKILSVNGQDLKNLLHQDAVDLFRNAGYAVSLRVQHRLQVQNGPIGHRGEGDPSGIPIFMVLVPVFALTMVAAWAFMRYRQQL
In assay [4], B4 displayed a Kd of 11 µM.
